Experimental data taken from paper PMC12182300, “Biochemical impact of p300-mediated acetylation of replication protein A: Implications for DNA metabolic pathway choice” (The Journal of Biological Chemistry, 2025).
One block for each molecule: values may come before it.

Assays:
[1] = target: T1, Replication Protein A (RPA), 70 kDa subunit RPA1 (Homo sapiens, UniProt P27694); test: RPAi titration of purified Um-RPA binding to ssDNA (gel data, Fig. S6)
T1 construct: Full-length human (h)RPA heterotrimer, unmodified (Um-RPA); with RPA2 and RPA3 (RPA heterotrimer)
T1 sequence (P27694 whole entry): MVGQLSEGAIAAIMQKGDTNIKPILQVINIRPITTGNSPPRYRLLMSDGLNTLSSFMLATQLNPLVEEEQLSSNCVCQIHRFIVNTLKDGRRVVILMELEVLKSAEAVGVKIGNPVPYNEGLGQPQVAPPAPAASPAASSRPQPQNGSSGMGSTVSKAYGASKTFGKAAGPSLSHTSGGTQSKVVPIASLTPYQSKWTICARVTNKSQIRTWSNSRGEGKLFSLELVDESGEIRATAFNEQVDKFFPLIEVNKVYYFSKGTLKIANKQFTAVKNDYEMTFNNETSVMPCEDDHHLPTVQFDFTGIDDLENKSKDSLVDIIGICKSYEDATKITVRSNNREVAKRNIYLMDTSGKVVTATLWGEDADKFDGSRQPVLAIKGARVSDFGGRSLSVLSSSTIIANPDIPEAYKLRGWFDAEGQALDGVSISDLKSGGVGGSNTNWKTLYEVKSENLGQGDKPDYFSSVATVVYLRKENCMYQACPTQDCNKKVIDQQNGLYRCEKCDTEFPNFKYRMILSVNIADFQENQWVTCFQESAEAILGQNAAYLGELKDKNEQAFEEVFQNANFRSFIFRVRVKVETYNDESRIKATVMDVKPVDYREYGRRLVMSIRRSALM
T1 sequence (P15927 whole entry partner): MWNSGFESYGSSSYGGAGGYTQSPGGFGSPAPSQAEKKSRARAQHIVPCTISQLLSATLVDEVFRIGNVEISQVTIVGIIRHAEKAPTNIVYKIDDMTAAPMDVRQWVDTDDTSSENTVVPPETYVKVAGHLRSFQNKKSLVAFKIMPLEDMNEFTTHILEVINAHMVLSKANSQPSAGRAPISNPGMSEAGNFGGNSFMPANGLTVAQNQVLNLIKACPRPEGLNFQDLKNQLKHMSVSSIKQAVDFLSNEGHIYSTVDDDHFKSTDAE
T1 sequence (P35244 2-121 partner): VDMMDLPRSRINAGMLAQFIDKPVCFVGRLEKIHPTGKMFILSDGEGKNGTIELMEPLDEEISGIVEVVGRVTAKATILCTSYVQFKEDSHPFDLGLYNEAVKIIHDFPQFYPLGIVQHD

[2] = target: T2, Um-RPA (unmodified RPA heterotrimer) (Homo sapiens, UniProt P27694;P15927;P35244 1-616;1-270;1-121); test: BLI; KD only in Fig. 4D; higher KD than Ac-RPA; EMSA: 50 mM Tris-HCl pH 8.0, 2 mM DTT, 30 mM NaCl, 0.1 mg/ml BSA, 5% glycerol, 10 min 37 °C; FEN1/RPA flap EMSA: same with 20 mM NaCl, 20 uM EDTA; BLI: 1X HAT buffer, 31.25-250 nM RPA; conditions: protein: recombinant; copies: 1;1;1; label: 3'-biotin (BLI); 5'-32P (EMSA); single strand
T2 sequence (P27694 whole entry, chain 1 of 3): as the sequence (P27694 whole entry) above
T2 sequence (P15927 whole entry, chain 2 of 3): as the sequence (P15927 whole entry partner) above
T2 sequence (P35244 whole entry, chain 3 of 3): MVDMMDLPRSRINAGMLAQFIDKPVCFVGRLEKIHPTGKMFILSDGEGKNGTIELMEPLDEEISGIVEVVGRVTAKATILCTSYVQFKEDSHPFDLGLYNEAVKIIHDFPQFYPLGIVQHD

FEN1 = FEN1 (UniProt P39748 1-380); test: EMSA; 50 nM FEN1, 20 uM EDTA; high-affinity binding; EMSA: 50 mM Tris-HCl pH 8.0, 2 mM DTT, 30 mM NaCl, 0.1 mg/ml BSA, 5% glycerol, 10 min 37 °C; FEN1/RPA flap EMSA: same with 20 mM NaCl, 20 uM EDTA; BLI: 1X HAT buffer, 31.25-250 nM RPA; conditions: protein: recombinant; double flap: 20 nt 5' flap (strand 2), 1 nt 3' flap (strand 3); 1:2 1:3; 1 nt 5' overhang on strand 1
Chain of FEN1 (P39748 whole entry): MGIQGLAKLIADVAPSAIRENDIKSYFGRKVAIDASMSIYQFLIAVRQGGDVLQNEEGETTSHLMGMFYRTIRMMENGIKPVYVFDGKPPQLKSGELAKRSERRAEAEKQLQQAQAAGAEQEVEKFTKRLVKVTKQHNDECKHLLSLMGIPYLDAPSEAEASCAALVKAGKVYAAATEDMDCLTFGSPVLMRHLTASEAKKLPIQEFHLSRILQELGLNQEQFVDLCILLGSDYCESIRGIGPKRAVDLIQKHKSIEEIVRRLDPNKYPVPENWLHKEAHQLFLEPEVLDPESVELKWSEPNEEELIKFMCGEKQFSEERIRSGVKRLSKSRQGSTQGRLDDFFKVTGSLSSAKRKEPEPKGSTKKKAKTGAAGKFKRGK

[3] = target: T2, Um-RPA (unmodified RPA heterotrimer); test: BLI; KD only in Fig. 4D; smallest fold difference to Ac-RPA; EMSA: 50 mM Tris-HCl pH 8.0, 2 mM DTT, 30 mM NaCl, 0.1 mg/ml BSA, 5% glycerol, 10 min 37 °C; FEN1/RPA flap EMSA: same with 20 mM NaCl, 20 uM EDTA; BLI: 1X HAT buffer, 31.25-250 nM RPA; conditions: protein: recombinant; copies: 1;1;1; label: 3'-biotin (BLI); 5'-TAMRA (EMSA); single strand
RPA1 DBD-F, unmodified = RPA1 DBD-F, unmodified (Homo sapiens, UniProt P27694 1-180); test: EMSA; 25-150 nM protein, 25 nM DNA; EMSA: 50 mM Tris-HCl pH 8.0, 2 mM DTT, 30 mM NaCl, 0.1 mg/ml BSA, 5% glycerol, 10 min 37 °C; FEN1/RPA flap EMSA: same with 20 mM NaCl, 20 uM EDTA; BLI: 1X HAT buffer, 31.25-250 nM RPA; conditions: protein: recombinant; tags: C-terminal His6; label: 5'-TAMRA; single strand
Chain of RPA1 DBD-F, unmodified (P27694 1-180): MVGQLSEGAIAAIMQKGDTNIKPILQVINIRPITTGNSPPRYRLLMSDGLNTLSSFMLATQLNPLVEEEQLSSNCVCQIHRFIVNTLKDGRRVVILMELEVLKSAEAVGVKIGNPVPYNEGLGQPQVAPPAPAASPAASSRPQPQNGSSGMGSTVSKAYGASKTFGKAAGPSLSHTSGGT

IC50 [1]: 4.46 ± 0.11 µM
Molecule: CCOc1ccc2cc(C3CC(c4ccc(I)cc4)=NN3C(=O)CCCC(=O)O)c(Cl)nc2c1 (stereo not shown) [TDRL-551]

IC50 [1]: 6.43 ± 0.29 µM
Molecule: DA1-73

Molecule: TTCACGCCTGTTAGTTAATTCACTGGCC (ssDNA) [LB.28 (28 nt)]
binding result [2]: binds

B1: 20 nt double flap (U26:D43:T49) (structured_DNA)
DNA 1: GCCCAGTCACGTCGTTGTAAAACGGGTCGTGACTGGGAAAACCCTGGCG
DNA 2: TTAGTTAATTCACTGGCCGTCGTTTTACAACGACGTGACTGGG
DNA 3: CGCCAGGGTTTTCCCAGTCACGACCA
binding result (FEN1): binds

Molecule: TTCACTATAACTACCTAATCTTCTGGCCGTACTGAACTACTGACA (ssDNA) [LB.45 (45 nt)]
binding result [3]: binds

Molecule: TTCACGAGATTTACTTATTTCACTGCGGCT (ssDNA) [LB.30 (30 nt)]
binding result (RPA1 DBD-F, unmodified): no binding

Molecule: TTCACGCCTGTTAGTTAATTCACTGGCCGTAC (ssDNA) [LB.32 (32 nt)]
binding result [2]: binds
